Data taken from patent publication US20190194323A1 (ALLAKOS, published 2019).

B1: 5D1 (antibody)
heavy chain variable region: QVQLQQPGAELVKPGASVKMSCKASGYTFTSSWITWVKDRPGQGLEWIGDIYPGNGNTNYNEKFKSKATLTVDTSSNTVYMQLSSLTSEDSAVHYCARDGRGYFDYWGPGTTLTVSS
light chain variable region: DIQMTQTTSSLSASLGDRVTIICRASQDISNFLNWYQQKPDGTVKLLMYDTSILQSGVPSRFSGRGSGADYSLTINNLEQEDLATYFCQQGKTLPYTFGGGTKLEIK
B2: monoclonal antibody 16H11 (antibody, V domains shown)
VH: QVQLHQSGAELVKPGASVKISCKGSGYDFSNFWMNWVKQRPGKGLEWIGQIYPGDGEIKYNGKFKGKATLTADESSSTAYIHLSSLTSEDSAVYFCARDDYLRAMDYWGQGTSVTVSS
VL: DIQMTQSPASLSASVGETVTITCRASGNIHNYLAWFQQKQGKSPHFLVYSAKALADGVPSRFSGSGSGTQYSLKINSLQPEDFGTYYCQHFWSSPYTFGGGTKLEIK
notes: Parental antibody; The Methods capture antibodies on anti-mouse sensors
B3: 5G10 (antibody, V domains shown)
VH: EVKLEESGGGLVQPGGSMKVSCVASGFTFSNYWMNWVRQSPEKGLEWVAQIRLKSDNYATHYAESVKGRFTISRDDSKSSVYLQMNNLRAEDTGIYYCTEGDYDIFAYWGQGTLVTVSA
VL: DIQMTQTTSSLSASLGDRVTISCSASQGITNYLNWYQQKPDGTVKLLIYYTSILHSGVPSRFSGSGSGTDYSLTISNLEPEDIATYYCQQYSKPPYTFGGGTKLEIK
B4: 9D4 (antibody)
heavy chain variable region: QVTLKESGPGILQPSQTLSLTCSFSGFSLSTFGMGVGWIRQPSGKGLEWLAHIWWDDDKYYHPALKSRLTISKDTSNNQVFLKIANVDTAETATFYCARVERGYPLDHWGQGTTLRVSS
light chain variable region: DIVLTQSPASLAVSLGQRATISCRASQSVSSSSYSYMHWYQQKPGQPPKLLIKYASNLKSGVPARFSGSGSGTDFTLTIHPVEEEDTATYYCQHSWEIPPTFGGGTKLEIK
B5: 2G12 (antibody, V domains shown)
VH: QVQLQQPGAELVKPGASVKLSCKASGYTFTSYWMQWVKQRPGQGLEWIGEIDPSVSYTEYNQKFKGKATLTVDTSSSTAYMQLSSLTSEDSAVYFCARWSKDYYGMDYWGQGTSVTVSS
VL: DIVLTQSHKFMSTSVGDRVTITCKASQDVSTAVAWYQQKPGQSPKLLIYWTSTRHTGVPDRFTGSGSGTDHTLTISSVQAEDLALYYCHQQYSTPPTFGGGTKLEIK
B6: 10E11 (antibody, V domains shown)
VH: EVQLQQSGPELVKPGDSVKISCKASGYSSTGYFMNWVMQSHGKSLEWIGRIIPYNGDTFYNQKFKDKATLTVDKSSNTAHLELRSLTSEDSVVYYCAGPRIGGDYDGGSWLAYWGQGTLVTVSA
VL: DIVMTQSQKFMSTTVGDRVSITCKASQNVGTAVAWYQQKPGHSPKLLIYSASNRYTGVPDRFTGSGYGTDFTLTISNMQSEDLADYFCQQYNSYPLTFGAGTKLELK

How the values were obtained:
[1] = target: T1, Siglec-7-ECD (human, UniProt Q9Y286 19-353); assay: bio-layer interferometry (ForteBio): antibody captured on the sensor, Siglec-7-ECD as analyte, 1:1 global fit
T1 construct: also called p75; AIRM
Protocol: A panel of antibodies was evaluated for binding to Siglec-7. The results identified anti-Siglec-7 antibodies that have improved KD values compared to commercially available anti-Siglec-7 antibodies (FIG. 7).
Antibody binding analysis was carried out by bio-layer interferometry (ForteBio). […] Antibodies were captured on anti-mouse kinetic sensors at 0.5 ug/mL; Siglec-7-ECD was used as analyte and diluted in assay buffer from 50 nM to 1.56 nM with 2× dilutions. Two-minute associations were conducted, followed by 10-minute dissociations. Results were determined relative to a control empty reference AHC sensor, and analyzed using ForteBio analysis software with 1:1 global fit parameters.

[2] = target: Siglec-7 on primary human cells (NK cells, CD8+ tumor-infiltrating T cells) (human) (UniProt Q9Y286)
[3] = target: T2, Siglec-7-ECD-Fc (human, UniProt Q9Y286 19-353); assay: ligand blocking on cells, flow cytometry: antibody dilutions pre-mixed with 10 nM Siglec-7-ECD-Fc, then binding of Siglec-7-ECD-Fc to Siglec-7 ligands on A375 melanoma cells
T2 construct: also called recombinant Siglec-7-Fc fusion protein; Siglec-7-Fc; not shown: human Fc (huFc)
Protocol: Recombinant Siglec-7-Fc was added to A375 cells in the presence of anti-Siglec-7 antibodies at increasing concentrations and binding of the complex was detected on the cell surface.
Human melanoma cell line A375, which expresses high level of ligands for Siglec-7, was used to determine the blocking activity of anti-Siglec-7 antibodies in a cell based assay. Two-fold serial dilutions of anti-Siglec-7 antibodies (40 nM to 40 pM) were combined with 10 nM Siglec-7-ECD-Fc in FACS buffer (PBS/2% BSA) and incubated on ice for 30 minutes. 2.5×10e4 A375 cells per well were added to round bottom 96-well tissue culture plates in FACS buffer, plates were centrifuged at 400 g for 2 min, supernatant was removed and cells were re-suspended in 100 ul of the antibody-Siglec-7 complexes. After a 1 hour incubation on ice, cells were washed twice and incubated for 30 minutes with goat anti-human F(ab′)₂ fragment conjugated to AF647 (Jackson IR labs) at 1 ug/ml in FACS buffer. After two more washes, cells were fixed in PBS/2% PFA and acquired on a Novocyte flow cytometer (ACEA biosciences). IC₅₀ values for blocking were determined based on plotting mean fluorescence in the APC channel and analysis using Prism Graphpad software.

[4] = target: T1, Siglec-7-ECD; assay: value quoted in the legend box of the internalization graph; same value as in the Figure 7 table (bio-layer interferometry)
[5] = target: Siglec-7 on primary human cells (NK cells, CD8+ tumor-infiltrating T cells) (human) (UniProt Q9Y286); remark: listed apart in the source
[6] = target: Siglec-7 on primary human cells (NK cells, CD8+ tumor-infiltrating T cells) (human, UniProt Q9Y286 19-467); assay: cell-based or functional assay
Sequence of Siglec-7 on primary human cells (NK cells, CD8+ tumor-infiltrating T cells) (Q9Y286 19-467 limits assumed): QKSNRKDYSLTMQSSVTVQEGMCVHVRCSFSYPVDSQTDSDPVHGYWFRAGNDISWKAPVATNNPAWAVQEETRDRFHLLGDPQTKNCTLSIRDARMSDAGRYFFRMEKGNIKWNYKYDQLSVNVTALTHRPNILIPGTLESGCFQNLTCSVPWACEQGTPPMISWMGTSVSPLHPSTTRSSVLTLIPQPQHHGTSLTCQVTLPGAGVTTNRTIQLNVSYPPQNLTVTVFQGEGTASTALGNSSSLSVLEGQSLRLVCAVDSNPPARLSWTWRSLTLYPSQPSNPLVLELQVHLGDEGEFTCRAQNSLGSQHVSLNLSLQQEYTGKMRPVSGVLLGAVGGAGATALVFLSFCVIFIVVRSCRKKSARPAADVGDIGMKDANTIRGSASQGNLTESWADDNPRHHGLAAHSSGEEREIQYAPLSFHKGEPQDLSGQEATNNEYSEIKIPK

T1 sequence (Q9Y286 19-353 limits assumed): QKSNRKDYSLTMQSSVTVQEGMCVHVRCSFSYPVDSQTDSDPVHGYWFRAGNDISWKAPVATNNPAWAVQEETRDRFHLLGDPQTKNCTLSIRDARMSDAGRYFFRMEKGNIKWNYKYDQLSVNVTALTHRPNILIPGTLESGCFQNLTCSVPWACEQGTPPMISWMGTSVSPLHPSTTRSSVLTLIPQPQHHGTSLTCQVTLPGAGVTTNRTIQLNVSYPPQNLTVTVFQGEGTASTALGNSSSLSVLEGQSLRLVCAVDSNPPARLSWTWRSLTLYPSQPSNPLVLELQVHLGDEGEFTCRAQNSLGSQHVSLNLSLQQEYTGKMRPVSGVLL
T2 sequence (Q9Y286 19-353): as the sequence (Q9Y286 19-353 limits assumed) above
Sequence of Siglec-7 on primary human cells (NK cells, CD8+ tumor-infiltrating T cells) (human) (Q9Y286 19-467 limits assumed): as the sequence (Q9Y286 19-467 limits assumed) above

Molecule | Kd [1] | IC50 of Siglec-7 internalization on NK cells (24 h, PBMC; remaining surface Siglec-7 stained with 4B12-AF647) [2] | IC50 [3] | Kd [4] | IC50 (read off the curve) [5] | IC50 of Siglec-7 internalization on NK cells (24 h, PBMC; remaining surface Siglec-7 stained with 4B12-AF647) [6]
QA79 (antibody) | 706 pM | 326 pM | 7490 pM |  |  | 
anti-Siglec-7 antibody clone S7.7 (BioLegend) | 422 pM | 469 pM | 4260 pM | 422 pM | 0.07 µg/mL | 
B1 | 1 pM |  |  |  |  | 20.6 pM
B2 | 35 pM |  | 7420 pM |  |  | 10.6 pM
B3 | 1 pM |  | 3070 pM |  |  | 206 pM
B4 | 760 pM |  | 1410 pM |  |  | 87.5 pM
B5 | 205 pM |  | 19800 pM |  |  | 67.3 pM
B6 | 522 pM |  | 6230 pM |  |  | 49.3 pM
